Results on two substances are retold here after paper PMC10960814.

One may read the stoichiometry N as a count of units in the complex or per binding partner.

The target in assay [1] is full-length human IR-A, Myc-tagged (pCS2-IR-A-Myc) (human) (UniProt P06213). The assay is described as follows: competition-binding assay (fluorescent insulin on bead-bound receptor); IR-A-Myc or IR-B-Myc held on anti-c-Myc magnetic beads; 1 nM Alexa Fluor labeled human insulin and the indicated amount of homemade IGF2, 4 °C, 14 h; 20 mM Hepes pH 7.4, 200 mM NaCl, 0.03% DDM, 0.003% CHS, 100 nM BSA; fluorescence of the eluate.

Assay [2] deals with full-length human IR-B, Myc-tagged (pCS2-IR-B-Myc) (human) (UniProt P06213). The assay is described as above.
In assay [3] the target is full-length human insulin receptor, B isoform (hIR-B), with a kinase-dead mutation, construct for structural studies (human). The experiment in a line: cryo-EM structure; purified hIR-A or hIR-B dimer fraction (20 mM HEPES-Na pH 7.5, 400 mM NaCl, 0.03% DDM) with refolded IGF2 added at a 2:8 (m/m) ratio, 2 h; saturated IGF2.

As to IGF2 R30A mutant (ligand), the fold of binding affinity against IGF2 WT in assay [1] and in assay [2] was 3 fold each time.
Turning to “insulin-like growth factor 2 (IGF2), wild type, homemade (from UniProt P01344 25-91) (ligand)”, in assay [3], the stoichiometry N (IGF2 per IR dimer (class 1, symmetric)) amounted to 4 and the stoichiometry N (IGF2 per IR dimer (class 2, asymmetric)) came out at 3. For the same substance, the stoichiometry N in assay [3] (scale: IGF2 per IR dimer) worked out at 2.
